The text below walks through data of PMC2919099.

For the series, the target named is T1, DRH-3 (Caenorhabditis elegans (N2), UniProt Q93413 1-1119).
T1 sequence: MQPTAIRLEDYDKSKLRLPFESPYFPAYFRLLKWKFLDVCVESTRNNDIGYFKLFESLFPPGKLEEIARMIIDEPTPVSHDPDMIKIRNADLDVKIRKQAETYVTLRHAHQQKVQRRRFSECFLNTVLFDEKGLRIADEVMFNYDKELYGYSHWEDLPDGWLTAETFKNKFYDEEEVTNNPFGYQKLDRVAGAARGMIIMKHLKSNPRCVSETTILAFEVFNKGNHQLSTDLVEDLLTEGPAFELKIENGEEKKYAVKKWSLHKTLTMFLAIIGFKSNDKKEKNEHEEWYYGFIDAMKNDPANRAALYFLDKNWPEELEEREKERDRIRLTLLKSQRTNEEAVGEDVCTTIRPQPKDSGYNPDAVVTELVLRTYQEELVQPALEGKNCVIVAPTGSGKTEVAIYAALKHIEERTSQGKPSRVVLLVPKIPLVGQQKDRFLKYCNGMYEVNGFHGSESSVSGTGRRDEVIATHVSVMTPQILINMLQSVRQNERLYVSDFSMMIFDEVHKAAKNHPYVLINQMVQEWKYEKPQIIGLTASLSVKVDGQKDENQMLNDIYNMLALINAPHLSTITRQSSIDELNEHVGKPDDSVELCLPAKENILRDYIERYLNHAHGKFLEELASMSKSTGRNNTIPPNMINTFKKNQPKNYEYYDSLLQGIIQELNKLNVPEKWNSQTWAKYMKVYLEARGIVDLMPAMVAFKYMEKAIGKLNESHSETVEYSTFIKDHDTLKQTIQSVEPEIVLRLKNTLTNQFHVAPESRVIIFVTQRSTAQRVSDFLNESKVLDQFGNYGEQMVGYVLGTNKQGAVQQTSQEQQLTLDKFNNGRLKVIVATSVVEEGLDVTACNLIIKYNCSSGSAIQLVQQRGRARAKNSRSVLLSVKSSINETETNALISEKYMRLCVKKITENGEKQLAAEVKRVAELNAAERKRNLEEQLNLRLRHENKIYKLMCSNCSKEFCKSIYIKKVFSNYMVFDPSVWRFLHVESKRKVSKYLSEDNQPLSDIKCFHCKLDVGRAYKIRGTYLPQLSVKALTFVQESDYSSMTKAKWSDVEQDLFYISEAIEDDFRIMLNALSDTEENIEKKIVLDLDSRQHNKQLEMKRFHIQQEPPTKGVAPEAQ
Put plainly: EMSA.

B1: ds25 RNA (25 bp) (dsRNA)
RNA 1: GGGUAUAGACUGACUAGGAUCUCCC
RNA 2: GGGAGAUCCUAGUCAGUCUAUACCC
One may read the Kd as the concentration at which binding is half-saturated. Higher therefore signals weaker binding. Turning to B1, binding was put at a Kd of 11 nM.
